Reference: patent publication US20250144186A1, “NOVEL THERAPEUTIC USES OF GARDNERELLA ENDOLYSINS” (priority 2022, published 2025)
Read-outs that look alike come from different tables or passages of the source.

Columns and labels:
[1] = system: Gardnerella vaginalis; test: microbe, parasite or virus in culture; format: cell-based; conditions: for MIC before passaging: 48 h incubation
Method: (§1) The minimum inhibitory concentration (MIC), which is a standard measure of the activity of antimicrobials, was determined according to the Clinical and Laboratory Standards Institute protocol (2018) Methods for Antimicrobial Susceptibility Testing of Anaerobic Bacteria (Carpenter et al., 2018). […] Controls for growth in the absence of antimicrobials were also included. OD600 was recorded by a microplate reader (Tecan, Grodig, Austria) after incubation at 37° C. for 48 h or, for some fast-growing strains, after incubation for 24 h. Absence of growth was defined as OD600≤0.14. […] MIC readout and MBC99.5 spotting were performed after 72 h incubation for H2B10B11.
(§2) However, topical intravaginal antibiotic administration is recommended for BV therapy, which allows to reach concentrations of active ingredients in the mg/mL range. […] Abbreviations: n.d., not determined; SJHB, St. Jan Hospital Bruges.
(§3) MIC90 is defined as the MIC value for 90% of the tested strains. For PM-477 (H2B10), the resistance breakpoint is not defined, therefore a “% resistant” is not defined (n.d.).

[2] = system: Gardnerella swidsinskii; test: microbe, parasite or virus in culture; format: cell-based; conditions: for MIC before passaging: 48 h incubation
Method: as §1, §2, §3

[3] = system: passaged G. piotii biofilm; test: MBEC on biofilms of passaged strains; format: cell-based, Gardnerella piotii; conditions: G. piotii (UGent 18.01T) passaged with MDZ-OH
Method: (§4) Gardnerella spp. (see figures for strain specification) was resuspended in brain heart infusion broth supplemented with 2% (w/v) gelatin, 0.5% yeast extract (w/v), 0.1% starch (w/v) and 0.25% glucose (w/v) (sBHIG). Passaged strains were resuspended in unbuffered NYCB supplemented with 1% glucose (w/v) (sNYCB). The OD600 was set to 0.1 (approx. 10^7-10^8 CFU/mL) and the cell suspension was diluted 1:10 in growth medium as input for biofilm formation. A total of 200 μL of the respective bacterial suspensions was added to 96-well flat bottom plates (tissue-culture treated, Sigma-Aldrich). The biofilms were grown under anaerobic conditions at 37° C. for 40 to 72 hours, depending on the isolate. Subsequently, the supernatant was removed, and the biofilm was treated with antimicrobials dissolved in sBHIG (at pH 5 for treatment with PM-477 (H2B10), and unbuffered for treatment with antibiotics) in 100 μL and incubated anaerobically at 37° C. for another 24 hours. After the treatment, the biofilms were washed twice with 200 μL 1x PBS and dissolved by vigorous pipetting (40x up and down). Serial dilutions of the dissolved cells were spotted on chocolate agar plates. The plates were incubated anaerobically for two to three days and the minimum biofilm eradication concentration (MBEC) of the endolysin or the antibiotics in use were calculated.
All MICs determined after 48 h of incubation.

[4] = system: G. vaginalis biofilm; test: MBEC on pre-formed biofilms of ancestor isolates; format: cell-based, Gardnerella vaginalis
Method: as §4
(§5) Gardnerella dominated biofilms covering the human vaginal epithelial cells are now generally considered as a hallmark of BV. Thus, it was tested how effective antibiotics and PM-477 (H2B10) are in penetrating and killing in vitro pre-formed, 40-72 h old biofilms of various Gardnerella strains.

[5] = system: G. piotii biofilm; format: cell-based, Gardnerella piotii
Method: as §4, §5

[6] = system: All Gardnerella; test: MIC assessment in suspension, panel of 22 strains; format: cell-based, Gardnerella spp.; conditions: N=22 strains
Method: as §1, §2, §3

[7] = system: Gardnerella leopoldii; test: MIC / MBC99.5 assessment in suspension; format: cell-based
Method: as §1, §2, §3

[8] = system: Gardnerella piotii; test: MIC / MBC99.5 assessment in suspension; format: cell-based
Method: as §1, §2, §3

[9] = Gardnerella swidsinskii, N=4 strains
[10] = Gardnerella leopoldii, N=3 strains
[11] = Gardnerella piotii, N=7 strains

B1: PM-477: genetically engineered recombinant Gardnerella-specific endolysin, amino acid sequence SEQ ID NO: 1, His-tag cleaved off (protein)
chain: SKRGIDVSEWQGDIDFNAVKASGVEFVIIRAGYGIGCKDKWFEQNYRKAKTCGLDVGAYWYSYANSGFEAAEEAQSCVNMLSGKSFEYPVYFDLEEKSQLNRGRAFCDSLITGFCNKLESCGYYAGFYTSLSTANNLVSAHVRNRYALWIAQWNTHCSYQGSYGLWQYSSSGSVPGVAGRVDMDYAYVDYPSIIKNVGLNGYKNGGSYTAPQISSIDEVAREVINGDWGNGNERKQRLTSAGYDYASVQNKVNELLGVKAYRKSVDELAREVIRGTWGNGSTRKQRLTQAGYDYNAVQKRVNELL
modifications: His-tag cleaved off; H2B10
MIC before passaging ([1]; G. vaginalis (ATCC 14018T)): 0.06 mg/L | MBC99.5 ([1]; G. vaginalis (BV50) UGent BV50.1): 1 mg/L | MIC ([1]; G. vaginalis (BV50) UGent BV50.1, suspension): 0.5 mg/L | MBC99.5 ([1]; G. vaginalis (BV111) UGent BV111.5): 0.5 mg/L | MIC ([1]; G. vaginalis (BV111) UGent BV111.5, suspension): 0.25 mg/L | MBC99.5 ([1]; G. vaginalis (FB049) UGent FB049-01): 0.25 mg/L | MIC ([1]; G. vaginalis (FB049) UGent FB049-01, suspension): 0.25 mg/L | MBC99.5 ([1]; G. vaginalis (FB061) UGent FB061-03): 2 mg/L | MIC ([1]; G. vaginalis (FB061) UGent FB061-03, suspension): 0.5 mg/L | MBC99.5 ([1]; G. vaginalis (Gv1) UGent 09.07): 1 mg/L | MIC ([1]; G. vaginalis (Gv1) UGent 09.07, suspension): 0.25 mg/L | MBC99.5 ([1]; G. vaginalis (Gv5) UGent 09.01): 0.125 mg/L | MIC ([1]; G. vaginalis (Gv5) UGent 09.01, suspension): <0.03 mg/L | MBC99.5 ([1]; G. vaginalis (Gv8) UGent 25.49): 0.125 mg/L | MIC ([1]; G. vaginalis (Gv8) UGent 25.49, suspension): 0.03 mg/L | MIC ([1]; G. vaginalis (Gv9) ATCC 14018(T), suspension): 0.06 mg/L | MBC99.5 ([1]; G. vaginalis (Gv9) ATCC 14018(T), reduces CFU by 99.5% within 24 h): 0.25 mg/L | MIC before passaging ([1]; G. vaginalis (UGent 09.07)): 0.25 mg/L | MIC before passaging ([1]; G. vaginalis (UGent BV50)): 0.5 mg/L | MIC Range ([1]; Gardnerella vaginalis, N=8 strains): <0.03 to 0.5 mg/L | MIC90 ([1]; Gardnerella vaginalis, N=8 strains, MIC value for 90% of the tested strains): 0.5 mg/L | MBC99.5 ([2]; G. swidsinskii (BV7) UGent BV7.1): 0.25 mg/L | MIC ([2]; G. swidsinskii (BV7) UGent BV7.1, suspension): 0.25 mg/L | MBC99.5 ([2]; G. swidsinskii (BV139) UGent BV139.3): 0.125 mg/L | MIC before passaging ([2]; G. swidsinskii (GS 9838-1T)): 0.03 mg/L | MBC99.5 ([2]; G. swidsinskii (Gs23) GS 10234): 0.125 mg/L | MIC ([2]; G. swidsinskii (Gs23) GS 10234, suspension): 0.063 mg/L | MBC99.5 ([2]; G. swidsinskii (Gs24) GS 9838-1(T)): 0.06 mg/L | MIC ([2]; G. swidsinskii (Gs24) GS 9838-1(T), suspension): 0.03 mg/L | MIC before passaging ([2]; G. swidsinskii (UGent BV 7.1)): 0.25 mg/L | MIC90 [2, 9]: 0.25 mg/L | MIC Range [2, 9]: 0.03 to 0.25 mg/L | MBEC passaged [3]: <1 µg/mL | Eradication of biofilm-grown cells (FIG. 1) ([4]; G. vaginalis (ATCC14018), biofilm grown 40 h, treated 24 h): can be eradicated | MBEC ([4]; ancestor G. vaginalis ATCC14018, pre-formed biofilm, 24 h treatment): 32 µg/mL | MBEC ([4]; ancestor G. vaginalis UGent 09.07, pre-formed biofilm): 16 µg/mL | MBEC ([4]; ancestor G. vaginalis UGent BV50, pre-formed biofilm): 2 µg/mL | MBEC ([4]; ancestor G. vaginalis UGent BV111.5, pre-formed biofilm): 8 to 32 µg/mL | MBEC ([4]; ancestor G. vaginalis UGent FB049, pre-formed biofilm): 0.5 to 2 µg/mL | MBEC ([5]; ancestor G. piotii UGent 18.01, pre-formed biofilm): 8 µg/mL | MBEC ([5]; ancestor G. piotii UGent 21.28, pre-formed biofilm): 2 to 8 µg/mL | MIC90 [6]: 1 mg/L | MIC Range ([6]; listed as PM-477 (H2B10)): <0.03-1^ μg/mL | MBC99.5 ([7]; G. leopoldii (BV13) UGent BV13.2): 2 mg/L | MIC ([7]; G. leopoldii (BV13) UGent BV13.2, suspension): 0.5 mg/L | MBC99.5 ([7]; G. leopoldii (BV217) UGent BV217.1): 1 mg/L | MIC ([7]; G. leopoldii (BV217) UGent BV217.1, suspension): 0.25 mg/L | MBC99.5 ([7]; G. leopoldii (Gl11) UGent 09.48): 0.5 mg/L | MIC ([7]; G. leopoldii (Gl11) UGent 09.48, suspension): 0.125 mg/L | MIC90 [7, 10]: 0.5 mg/L | MIC Range [7, 10]: 0.125 to 0.5 mg/L | MBC99.5 ([8]; G. piotii (BV049) UGent BV049.1): 1 mg/L | MIC ([8]; G. piotii (BV049) UGent BV049.1, suspension): 1 mg/L | MBC99.5 ([8]; G. piotii (BV140) UGent BV140.2): 2 mg/L | MIC ([8]; G. piotii (BV140) UGent BV140.2, suspension): 1 mg/L | MBC99.5 ([8]; G. piotii (BV154) UGent BV154.1): 1 mg/L | MIC ([8]; G. piotii (BV154) UGent BV154.1, suspension): 0.5 mg/L | MBC99.5 ([8]; G. piotii (FB041) UGent FB041): 1 mg/L | MIC ([8]; G. piotii (FB041) UGent FB041, suspension): 0.5 mg/L | MBC99.5 ([8]; G. piotii (Gp17) UGent 18.01(T)): 4 mg/L | MIC ([8]; G. piotii (Gp17) UGent 18.01(T), suspension): 1 mg/L | MBC99.5 ([8]; G. piotii (Gp22) UGent 21.28): 2 mg/L | MIC ([8]; G. piotii (Gp22) UGent 21.28, suspension): 1 mg/L | MBC99.5 ([8]; G. piotii (P80275) UGent P80275): 1 mg/L | MIC ([8]; G. piotii (P80275) UGent P80275, suspension): 0.5 mg/L | MIC before passaging ([8]; G. piotii (UGent 18.01T), 48 h incubation): 1 mg/L | MIC90 [8, 11]: 1 mg/L | MIC Range [8, 11]: 0.5 to 1 mg/L
